A short description of this data set: label from the status in PepcDB records.
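Note: failed if final PepcDB status was selected cloned or expressed and not failed if soluble or beyond.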

“MRRTNTFAVRPLSDDDERLLLDLLDASASLWNELNYERRQQFFDGESVWDTADYRKQYVGVLGSATAQQVIRKNKSAWQSFFAARENGEDTAPPGYWGNEDDGRELRTFIRHDLYTLDTGERSRVEIPVGQDLKDEYGLGYHDRLRLEVAGDPKWDGEQGRLEIQYGETDDTFRAFQPVTVPDSRQDSPLASHEAALDVGANNLVACTTTTGEQYLYEGRGLFAHFRETTREIARLQSKLREGRYSSQRIRRLYRKRTRRRDHAQDALVRDLMERLYAEGVDTVYVGDLTDVLSTHWCAEVNAKTHQFWAFRAFIERLSHTAEEYGITVEVRSEADTTRTCPACGEQDDTDRDGDVFRCPCGHEAHADLCASRTFLERQTGKPVGSMARPVRLKWDDHNWSEIPHSPERARPNEKRTNQSTDSQDGKLASVGTA”: the protein production entry is listed as “failed”.

As for “MRRVTVPTAPPAYADIGYPMSMLPIKSSRAVSGIQQKQEVLPGMDTPSNSMRPVADDNIDHTSHTPNGVASAFILEATVNVISGPKVLMKQIPIWLPLGIADQKTYSFDSTTAAIMLASYTITHFGKANNPLVRVNRLGQGIPDHPLRLLRMGNQAFLQEFVLPPVQLPQYFTFDLTALKLVTQPLPAATWTDETPSNLSGALRPGLSFHPKLRPVLLPGKTGKKGHVSDLTAPDKIQTIVNLMQDFKIVPIDPAKSIIGIEVPELLVHKLTGKKMSQKNGQPIIPVLLPKYIGLDPISPGDLTMVITPDYDDCHSPASCSYLSEK”, the protein production entry is “not failed”.

For the sequence “MRSFLLGGVRPRDFWSMLKNLALRVDGEGAMDIGAWLRDQGLGQYEGTFRQNDIDPEVLRHLTAEDLIGVGVASVGHRRKLLAAIAALREVAEQPSGAAGFGATPVINPEAERRQLTVMFVDLVESTRLSSRLDPEEMGELLRGYQRAVAGAIARFEGHVAKYMGDGVLAYFGYPRAHEDEAERAVRAGLAAIDAVRKLQPPHGETLEARVGIATGLVVVGELIGEGAAREETVIGETPNLAARLQSVAEPGAVVVASATRQLIGGLFDLAELGFHPLKGFAASIPAWRVLGESSAESRFEAFHGASLTPLVGREHDIGLLLKRWEAVKKGKGRVVLLAGEPGIGKSRLVRALRRRLEGEPHTTVSHYCSPYHQTSPLYPVIRLLERAAGFAAEDPPEVKLSKLEALLTQSIEEVADAAPLLAALLSVPADDRYQPLELSPHRQKKRMLEVLVDQLIGLAARQPILAVYEDVHWADPTSLELLDLVVDRVQDSPVLVLITFRTEFLPPWTRYPHVTVLTLSRLSRRQGAEMVDRLTGRRALPTEVLDQIVAKTDGVPLFVEELTRAILETSLLKAEGDHYALARPLSAISIPATLHESLLARLDRLAPAREVMQVAAAIGREFSHELLVTAAPLQASEVEEALEDLIASGLVFRHGTPPQLTYSFKHALVRDAAYATLVRTKRQRLHAAIATAIEQRFPEMVQTQPELLAQHYAEAGRLEPAVNYWLRAGQAEIARSATTEAISHLTRGLELLEGLPDDAARLRKELELQVALSVALMTAKGWAAPEVGRANARARNLCERLGDKSRLFPVLYGDWVFHVVRAELEAGRKAGEELLRRAQEEREVSAEIVGNRIAGTGAFLRGEIANAREYLERSLALYDPQQHRALAFLFAQDPRVAGLSVLSLTLFALGYPEQAQARSNEALADARELSHSNTLGFALLYGCILSQLRGDWREARDRAGSLITLARAQGSPHFLGAGKILQGWTLGQTGELPAASTKVQEGLASWQMTGARFLVPYFLSLLARVETQSAGAKRALDLLTDALQRARETGERWFEAELHRLTGELMLQLPAFDRAEGEARLQHAVELARGQGADLWELRAATSLARLRIGQNRFGDVHHLLAPLCGKFAEGFATTDLQSAQRLLREAAGFDGAIKSSD”, the protein production result is “failed”.

Take “MRSLWVFYRTAPDTIVFFDDSPTARFSTVVAFYNHRTGGPMSFAQRDPIGELSLLTHIFIKYREPYVTDGQCRVIVQSKRPIMSSIEQYSQKPFYAHKGTDESSQDTETTEDIVVKEGKHFWIEFDPPEEPFTDTSRRVLRLVRNVEQHRQPGYCTFSKSLFVERNGNDIFKPYRLYPTHNFEDKYFSSAEVKESASLYDLSSLKKNEIRPTLERYEEALKAEVLTPLRNALIPCMVEVYRREIGFESEPDKSLRNASYSSVLSWGSTLRFTLRLWDRIVSGQPLAQVKSEDWFEGTFEKVPSAVSQGARSAIRYYVSDKKLSRDYVLAQALPVYFKWAACREAIQSKLHEQKTDFFAVDTELDKTHVLSGDNVPAKIKKLLEEAAARRKDALSENTIQAYQHAIDHFKSFCERHGPKALPASPETLIAYFEHLAQNGYAESTIRKRRSAIRFLHERSMNESPTTSESVRRYFDDLRKTIPESRGHGQKDPILFHHLHQMSFDEEELSDLRDRAILYIGVATGLRDSGLIGLEMRDIFEKEGGVVYRIRDPKGEGDPGPERVSVPHEVPALTPSPNEALTAWIEAAGIESGAVFRSVDQYGNVGGDDGLSSGSISKDIVKPWMKSIGEDPSEYSCHSLRAGFVTQAILDGITEPRIAAQSRHKSIEALREYERPTNDMKNHMLKEMG”: the protein production entry is on record as “failed”.

Take “MRSMLQDSLVLLDYLRGMLLHNEELWLLLFPVMIIIELPLYLLVLTGIFRWSYMREEPELKRFPSVSFVITCYGEGEAIGITIDTLVEQIYPGHIEILAVVDGAVQNQDTYKAALNGERRHTGVRNRKVRVLPKWQRGGRVSTLNAGLSMASGEIVINVDGDTSFDNDMVFTMMKQFADKNVIASGGALRVRNHNANLLTKMQSLEYMLSMQAGKTGMATWGVLNNISGAFGAFRKNLLKQVGGWDTHTAEDLDLTMRLKQYKCRYPDNKLAFSTHSIGHTDVPDTLKGLVLQRLRWDGDLLFLFLRKHNEGLSPRLLGWGNFVFTLAYGVIQNVLLPLLVVIFSVYMVIVYPLKFVLALMLMLYFVYLFLSALIFVVYIGLVSERKKEDLKSVKWLFLYPVYQFFMRLITAFSMVNEVVRRSHEESSMAPWWVLKRGKKF”: the protein production entry was “failed”.

Consider “MRSTEVGRVVEDFIVLPPTPKSKWKLSDFELLHKLGGGNYGDVHLASVKDCNFVCALKRLSIKKLADFDIATQLRREIEIAFNTRHKYLLRTYAYFFDETDIYLIMEPCSNGMLYTELNRVKCFAPPTAARYVAQLAEALLYLHQHHILHRDIKPENILLDHNNNIKLADFGWSVHDPDNRRKTSCGTPEYFPPEIVGRQAYDTSADLWCLGIFCYELLVGKTPFVGKDTDQICKNIHSMHFKIPENIPSEAKDLIANLLLRDGSRRLALHRVVNHQFLLKYYYLPNNLQPPTGKRPRLDAEPTAGKEN”, for which the protein production entry is recorded as “failed”.

Consider “MRTDDSALKNLGKGRESTTLEMKHRELCSGKTIDLGKKMRRALVLDNIRVQSLQLKIKAMTSSTTEQSVSETQIPLTSGIKLESLNYIVTVELGGKNMSLIVDTGSDLTWVQCQPCRSCYNQQGPLYDPSVSSSYKTVFCNSSTCQDLVAATSNSGPCGGNNGVVKTPCEYVVSYGDGSYTRGDLASESILLGDTKLENFVFGCGRNNKGLFGGSSGLMGLGRSSVSLVSQTLKTFNGVFSYCLPSLEDGASGSLSFGNDSSVYTNSTSVSYTPLVQNPQLRSFYILNLTGASIGGVELKSSSFGRGILIDSGTVITRLPPSIYKAVKIEFLKQFSGFPTAPGYSILDTCFNLTSYEDISIPIIKMIFQGNAELEVDVTGVFYFVKPDASLVCLALASLSYENEVGIIGNYQQKNQRVIYDTTQERLGIVGENCRV”, for which the protein production entry is on record as “failed”.

For “MRTIYVIGIGTGSPEFLTLQAISGLRHAQAIVALDKGEQKSDLLALRQKIVDTHAPGTPIYAVTDPERDRNPDNYEEEVRRWHAERAHLLASTIRERTPDDGAVAFLVWGDPSLYDSTLRIIEHMRNLEDLHADVKVIPGITAVQVLTAEHGILINRIGEAIHITTGRNLPETSAKDRRNCVVMLDGKTAWQDVATEHTYMWWGAFLGTEQQVLRKGYVHEIGAQVAELKQQLRTEHGWIMDTYLLRELD”, the protein production entry is listed as “not failed”.

In the case of “MRTLKVQALWDGEAGVWVAESDDVPGLATEAATLEELLAKLAVMVPELLEENGVALELPVELRLEATRPLVFS”, the protein production result was “not failed”.

For “MRTLNTSAMDGTGLVVERDFSVRILTACFLSLLILSTLLGNTLVCAAVIRFRHLRSKVTNFFVISLAVSDLLVAVLVMPWKAVAEIAGFWPFGSFCNIWVAFDIMCSTASILNLCVISVDRYWAISSPFRYERKMTPKAAFILISVAWTLSVLISFIPVQLSWHKAKPTSPSDGNATSLAETIDNCDSSLSRTYAISSSVISFYIPVAIMIVTYTRIYRIAQKQIRRIAALERAAVHAKNCQTTTGNGKPVECSQPESSFKMSFKRETKVLKTLSVIMGVFVCCWLPFFILNCILPFCGSGETQPFCIDSNTFDVFVWFGWANSSLNPIIYAFNADFRKAFSTLLGCYRLCPATNNAIETVSINNNGAAMFSSHHEPRGSISKECNLVYLIPHAVGSSEDLKKEEAAGIARPLEKLSPALSVILDYDTDVSLEKIQPITQNGQHPT”, the protein production result is “failed”.

Source of the values: a protein production outcome set (Wang et al. 2014).
